Test results: patent US20180230233A1 (Genentech, published 2018)

Legend:
[1] = target: T1, human tryptase beta 3 (human, UniProt P20231 31-275); assay: SPR, protocol as for tryptase beta 1
Protocol: In this experiment, all the humanized variants were expressed as IgG by transient transfection of 293 cells. IgG was purified with protein G affinity chromatography. The affinity of each variant for recombinant His-tagged human tryptase beta 1 monomer (SEQ ID NO: 128) was determined by SPR analysis using a BIAcore® T200. BIAcore® Series S CM5 sensor chips were immobilized with monoclonal mouse anti-human IgG (Fc) antibody (Human antibody capture kit from GE Healthcare) and anti-tryptase variants were subsequently captured on each flow cell. Serial 3-fold dilutions of the human tryptase beta 1 monomer were injected at a flow rate of 30 μl/min. Each sample was analyzed with 3 min association and 10 min dissociation. After each injection, the chip was regenerated using 3 M MgCl₂. Binding response was corrected by subtracting the response units (RU) from a flow cell capturing an irrelevant IgG at similar density. A 1:1 Languir model of simultaneous fitting of kₒₙ and koff was used for kinetics analysis.

[2] = target: T1, human tryptase beta 3; assay: cell-based or functional assay

T1 sequence (P20231 other isoform, or with tags, fused parts or gaps limits assumed): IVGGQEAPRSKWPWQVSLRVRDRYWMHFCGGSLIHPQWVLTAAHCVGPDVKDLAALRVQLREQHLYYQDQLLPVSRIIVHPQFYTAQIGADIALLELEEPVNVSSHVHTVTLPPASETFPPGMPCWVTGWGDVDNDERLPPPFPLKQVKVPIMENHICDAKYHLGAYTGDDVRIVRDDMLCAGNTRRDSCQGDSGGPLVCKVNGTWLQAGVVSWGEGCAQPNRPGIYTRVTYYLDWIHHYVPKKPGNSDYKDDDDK

Kd [1]: 0.13 nM
IC50 (nM), tryptase enzymatic assay [2]: 2.8 nM
B1: huE104.v2 IgG4 (S228P) (antibody)
heavy: not shown
light: DIQMTQSPSSLSASVGDRVTITCQSIKSVYNNRLGWYQQKPGKAPKLLIYETSILTSGVPSRFSGSGSGTDFTLTISSLQPEDFATYYCAGGFDRSGDTTFGQGTKVEIKRTVAAPSVFIFPPSDEQLKSGTASVVCLLNNFYPREAKVQWKVDNALQSGNSQESVTEQDSKDSTYSLSSTLTLSKADYEKHKVYACEVTHQGLSSPVTKSFNRGEC
notes: also called huE104.v2 Control
